In publication PMC2928003:
“And” between values parts separate entries of the source, which are not always exact repeats. Equal values may be shown once.

What was measured:
[1] = target: nonmuscle myosin IIB (rat (endogenous in PC12 and rat brain)) (UniProt Q9JLT0); experiment: co-IP
[2] = target: nonmuscle myosin IIA (mouse (endogenous in NIH3T3)) (UniProt Q8VDD5); experiment: co-IP
[3] = target: nonmuscle myosin IIB (mouse (endogenous in NIH3T3)) (UniProt Q61879); experiment: co-IP
the DH–PH domains = experiment: pull-down
[4] = target: Tiam1 DH–PH domain (aa 1048–1406), His-tagged (UniProt Q60610); experiment: SPR
[5] = target: Vav1 DH–PH domain (aa 195–508), His-tagged (UniProt P15498); experiment: SPR
[6] = target: βPIX DH–PH domain (aa 100–400), His-tagged (UniProt O55043); experiment: SPR
βPIX DH–PH domain (aa 100–400), His-tagged, sequence (O55043 100-400): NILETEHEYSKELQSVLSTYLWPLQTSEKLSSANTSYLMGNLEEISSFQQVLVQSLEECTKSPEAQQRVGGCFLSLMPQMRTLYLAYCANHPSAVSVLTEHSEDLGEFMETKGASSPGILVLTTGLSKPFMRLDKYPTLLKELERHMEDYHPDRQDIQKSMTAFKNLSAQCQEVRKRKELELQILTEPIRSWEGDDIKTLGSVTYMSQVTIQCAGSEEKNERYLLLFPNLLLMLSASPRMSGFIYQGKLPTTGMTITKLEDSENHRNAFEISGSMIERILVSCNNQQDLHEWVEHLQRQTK

nonmuscle myosin IIB (rat (endogenous in PC12 and rat brain)), sequence (Q9JLT0 whole entry): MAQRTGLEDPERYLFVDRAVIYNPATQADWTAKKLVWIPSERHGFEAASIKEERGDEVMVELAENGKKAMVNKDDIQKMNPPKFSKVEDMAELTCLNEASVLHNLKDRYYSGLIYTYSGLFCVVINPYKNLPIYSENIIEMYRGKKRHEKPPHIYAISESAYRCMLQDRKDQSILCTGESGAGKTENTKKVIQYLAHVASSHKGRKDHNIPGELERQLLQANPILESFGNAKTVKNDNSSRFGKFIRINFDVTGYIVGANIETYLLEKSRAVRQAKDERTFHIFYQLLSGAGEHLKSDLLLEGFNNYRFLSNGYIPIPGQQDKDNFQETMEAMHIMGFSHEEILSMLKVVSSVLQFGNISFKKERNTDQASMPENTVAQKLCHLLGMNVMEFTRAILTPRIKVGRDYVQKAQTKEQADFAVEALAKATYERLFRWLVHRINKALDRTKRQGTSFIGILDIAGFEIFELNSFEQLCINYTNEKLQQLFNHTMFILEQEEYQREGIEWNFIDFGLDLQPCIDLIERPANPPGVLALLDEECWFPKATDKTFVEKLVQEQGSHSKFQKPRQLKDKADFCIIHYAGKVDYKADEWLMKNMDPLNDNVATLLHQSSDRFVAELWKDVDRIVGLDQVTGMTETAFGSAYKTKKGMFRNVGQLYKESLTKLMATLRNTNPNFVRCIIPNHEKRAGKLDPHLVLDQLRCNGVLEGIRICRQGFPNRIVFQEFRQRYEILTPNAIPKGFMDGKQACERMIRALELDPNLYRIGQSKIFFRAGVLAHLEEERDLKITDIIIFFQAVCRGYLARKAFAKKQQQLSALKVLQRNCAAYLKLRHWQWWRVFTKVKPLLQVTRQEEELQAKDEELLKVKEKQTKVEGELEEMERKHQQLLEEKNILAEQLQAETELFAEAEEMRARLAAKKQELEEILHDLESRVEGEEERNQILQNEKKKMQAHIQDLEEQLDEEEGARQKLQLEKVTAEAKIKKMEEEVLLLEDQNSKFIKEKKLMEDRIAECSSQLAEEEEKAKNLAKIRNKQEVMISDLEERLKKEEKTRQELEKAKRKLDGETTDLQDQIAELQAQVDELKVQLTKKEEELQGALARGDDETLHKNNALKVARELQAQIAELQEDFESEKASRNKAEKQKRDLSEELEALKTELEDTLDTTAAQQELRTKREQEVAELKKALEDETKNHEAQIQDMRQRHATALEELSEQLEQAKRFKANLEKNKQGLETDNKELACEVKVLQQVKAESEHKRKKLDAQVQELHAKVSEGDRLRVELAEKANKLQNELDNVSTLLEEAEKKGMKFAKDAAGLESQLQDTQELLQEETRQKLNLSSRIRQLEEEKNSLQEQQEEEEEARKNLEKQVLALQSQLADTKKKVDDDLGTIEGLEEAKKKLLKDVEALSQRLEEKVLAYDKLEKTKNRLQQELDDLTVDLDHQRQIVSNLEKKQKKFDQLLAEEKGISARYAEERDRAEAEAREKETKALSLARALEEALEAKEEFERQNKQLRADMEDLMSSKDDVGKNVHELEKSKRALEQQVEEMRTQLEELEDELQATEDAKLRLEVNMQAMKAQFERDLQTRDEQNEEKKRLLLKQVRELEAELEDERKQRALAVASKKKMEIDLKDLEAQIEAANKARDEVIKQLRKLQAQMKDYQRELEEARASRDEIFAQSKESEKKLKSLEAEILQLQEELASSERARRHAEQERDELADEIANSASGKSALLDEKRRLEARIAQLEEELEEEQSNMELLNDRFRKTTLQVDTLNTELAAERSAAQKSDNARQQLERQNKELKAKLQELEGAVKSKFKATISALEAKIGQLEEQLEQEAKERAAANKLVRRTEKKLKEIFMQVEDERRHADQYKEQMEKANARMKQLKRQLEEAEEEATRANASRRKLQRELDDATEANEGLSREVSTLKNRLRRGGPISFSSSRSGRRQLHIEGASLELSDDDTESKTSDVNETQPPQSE
nonmuscle myosin IIB (mouse (endogenous in NIH3T3)), sequence (Q61879 whole entry, the tested form may be a part): as the sequence (Q9JLT0 whole entry) above, with K150M, K170E, T452A, N652T, G933E, M1304I, G1389S, E1969D counted along it
nonmuscle myosin IIA (mouse (endogenous in NIH3T3)), sequence (Q8VDD5 whole entry): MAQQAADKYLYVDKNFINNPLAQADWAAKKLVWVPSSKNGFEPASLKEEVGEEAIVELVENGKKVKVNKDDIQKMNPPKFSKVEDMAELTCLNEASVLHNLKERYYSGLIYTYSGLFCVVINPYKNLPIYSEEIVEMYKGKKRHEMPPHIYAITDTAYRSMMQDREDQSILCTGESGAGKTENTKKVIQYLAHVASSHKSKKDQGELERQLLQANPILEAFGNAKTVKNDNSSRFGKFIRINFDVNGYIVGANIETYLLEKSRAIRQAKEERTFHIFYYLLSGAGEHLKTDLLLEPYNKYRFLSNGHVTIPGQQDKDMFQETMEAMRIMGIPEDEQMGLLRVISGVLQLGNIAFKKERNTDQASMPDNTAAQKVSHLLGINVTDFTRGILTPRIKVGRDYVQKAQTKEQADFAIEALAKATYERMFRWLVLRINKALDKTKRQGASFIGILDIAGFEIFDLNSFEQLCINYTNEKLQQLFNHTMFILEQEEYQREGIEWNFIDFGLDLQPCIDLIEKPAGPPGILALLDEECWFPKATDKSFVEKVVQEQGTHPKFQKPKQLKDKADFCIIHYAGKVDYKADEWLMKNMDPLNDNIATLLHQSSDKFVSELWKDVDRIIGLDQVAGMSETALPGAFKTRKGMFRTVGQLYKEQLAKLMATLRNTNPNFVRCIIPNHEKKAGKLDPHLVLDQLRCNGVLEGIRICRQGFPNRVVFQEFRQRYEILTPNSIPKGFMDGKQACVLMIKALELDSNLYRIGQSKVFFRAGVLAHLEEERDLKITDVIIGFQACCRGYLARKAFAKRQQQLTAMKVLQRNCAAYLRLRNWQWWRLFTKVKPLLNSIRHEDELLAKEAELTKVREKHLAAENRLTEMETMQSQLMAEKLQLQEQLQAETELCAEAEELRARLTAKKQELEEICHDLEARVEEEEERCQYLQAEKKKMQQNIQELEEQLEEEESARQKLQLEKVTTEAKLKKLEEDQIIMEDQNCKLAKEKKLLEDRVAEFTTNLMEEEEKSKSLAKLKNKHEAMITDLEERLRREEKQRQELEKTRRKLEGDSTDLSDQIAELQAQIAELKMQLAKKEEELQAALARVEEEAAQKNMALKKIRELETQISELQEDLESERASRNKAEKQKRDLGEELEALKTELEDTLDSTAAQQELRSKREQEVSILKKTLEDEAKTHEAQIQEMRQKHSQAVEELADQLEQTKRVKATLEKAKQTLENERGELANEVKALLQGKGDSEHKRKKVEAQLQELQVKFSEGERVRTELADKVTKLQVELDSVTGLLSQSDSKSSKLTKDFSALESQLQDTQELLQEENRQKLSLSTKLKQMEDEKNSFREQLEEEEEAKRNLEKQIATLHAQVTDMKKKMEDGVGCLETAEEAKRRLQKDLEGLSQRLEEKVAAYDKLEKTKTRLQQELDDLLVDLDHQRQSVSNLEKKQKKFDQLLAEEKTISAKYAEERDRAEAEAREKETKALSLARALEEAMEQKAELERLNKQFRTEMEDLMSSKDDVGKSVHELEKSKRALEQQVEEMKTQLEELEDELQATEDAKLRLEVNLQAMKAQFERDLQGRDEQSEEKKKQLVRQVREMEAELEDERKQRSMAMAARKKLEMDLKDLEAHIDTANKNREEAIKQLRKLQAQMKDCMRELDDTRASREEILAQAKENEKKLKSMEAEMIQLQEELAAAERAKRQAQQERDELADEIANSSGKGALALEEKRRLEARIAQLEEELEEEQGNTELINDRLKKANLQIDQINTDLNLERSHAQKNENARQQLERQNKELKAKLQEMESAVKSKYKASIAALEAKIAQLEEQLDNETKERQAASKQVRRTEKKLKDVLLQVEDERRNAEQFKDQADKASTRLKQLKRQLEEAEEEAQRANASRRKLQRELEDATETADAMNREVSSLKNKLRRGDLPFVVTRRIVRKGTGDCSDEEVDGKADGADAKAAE
Tiam1 DH–PH domain (aa 1048–1406), His-tagged, sequence (Q60610 1048-1406): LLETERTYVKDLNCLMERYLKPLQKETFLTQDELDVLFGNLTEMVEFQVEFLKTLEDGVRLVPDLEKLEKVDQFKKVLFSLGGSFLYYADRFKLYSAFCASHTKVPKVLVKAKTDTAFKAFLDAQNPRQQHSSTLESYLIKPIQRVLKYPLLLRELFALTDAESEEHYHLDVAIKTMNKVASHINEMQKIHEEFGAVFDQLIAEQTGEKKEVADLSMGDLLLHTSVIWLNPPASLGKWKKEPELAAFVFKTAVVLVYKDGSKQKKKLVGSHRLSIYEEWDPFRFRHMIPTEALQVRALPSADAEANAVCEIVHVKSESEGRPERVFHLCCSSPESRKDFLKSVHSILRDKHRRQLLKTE
Vav1 DH–PH domain (aa 195–508), His-tagged, sequence (P15498 195-508): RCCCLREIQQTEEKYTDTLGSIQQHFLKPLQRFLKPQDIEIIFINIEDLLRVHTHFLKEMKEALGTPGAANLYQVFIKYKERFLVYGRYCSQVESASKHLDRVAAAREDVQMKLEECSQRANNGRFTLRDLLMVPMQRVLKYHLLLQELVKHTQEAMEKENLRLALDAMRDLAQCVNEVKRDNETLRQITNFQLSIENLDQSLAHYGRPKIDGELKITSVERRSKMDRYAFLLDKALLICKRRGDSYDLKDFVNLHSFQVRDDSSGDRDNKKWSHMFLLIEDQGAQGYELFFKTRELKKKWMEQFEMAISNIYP

**Q.** For FGD1 (natural protein), which percent of the GEF of the lysate found in the MIIB IP [1] is on record?
**A.** Its percent of the GEF of the lysate found in the MIIB IP is 8.1%.

**Q.** With Trio, Q0KL02 1-3102 (natural protein) as the substance, how does the percent of the GEF of the lysate found in the MIIA IP [2] read?
**A.** Its percent of the GEF of the lysate found in the MIIA IP is 10.7%.

**Q.** What about the percent of the GEF of the lysate found in the MIIB IP [3] of the same substance?
**A.** The percent of the GEF of the lysate found in the MIIB IP was 8.7%.

**Q.** For “kalirin, P97924 1-2959 (natural protein)”, which percent of the GEF of the lysate found in the MIIB IP [1] is on record?
**A.** The percent of the GEF of the lysate found in the MIIB IP was 5.6%.

**Q.** With Dbl (natural protein) as the substance, how does the percent of the GEF of the lysate found in the MIIB IP [3] read?
**A.** The percent of the GEF of the lysate found in the MIIB IP was 1.3%.

**Q.** With LARG (natural protein) as the substance, how does the percent of the GEF of the lysate found in the MIIB IP [1] read?
**A.** The percent of the GEF of the lysate found in the MIIB IP was 1%.

**Q.** How did the percent of the GEF of the lysate found in the MIIB IP [1] turn out when Tiam1 (natural protein) was run?
**A.** Its percent of the GEF of the lysate found in the MIIB IP is 1.6%.

**Q.** “skeletal muscle myosin II (from UniProt Q28641 1-1938; P02602 1-192; P02608 1-170) (complex)” was tested. Which fold of association with F-actin over without F-actin (the DH–PH domains) did it give?
**A.** Its fold of association with F-actin over without F-actin is 2 fold and 4 fold.

**Q.** And the Kd [4]?
**A.** The Kd was 290 nM.

**Q.** And the Kd [5]?
**A.** The Kd was 390 nM.

**Q.** And the Kd [6]?
**A.** The Kd was 260 nM.
